We go through one molecule from publication PMC2654577.

What all share (test): enzyme inhibition kinetics
Experiment [1] addresses factor XIa catalytic domain K175A (human).
The target in experiment [2] is factor XIa catalytic domain K170A (human) (UniProt P03951).
The target in experiment [3] is factor XIa catalytic domain K175A (human). This is another data set of the same source.
Experiment [4] has as its target factor XIa catalytic domain R173A (human) (UniProt P03951).
Experiment [5] concerns the target factor XIa catalytic domain K179A (human).
Experiment [6] has as its target full-length factor XIa autolysis loop variant fXIa-144-149A (human).
Experiment [7] addresses factor XIa catalytic domain R171A (human) (UniProt P03951).
The target of experiment [8] is factor XIa catalytic domain K170A (human) (UniProt P03951). The source holds these as a separate data set.
Experiment [9] has as its target factor XIa catalytic domain K175A (human). This is another data set of the same source.
Experiment [10] deals with factor XIa catalytic domain R173A (human) (UniProt P03951). This is another data set of the same source.
Experiment [11] has as its target factor XIa catalytic domain with residues 170, 171 and 173 changed to alanine (human) (UniProt P03951).
In experiment [12] the target is wild type recombinant factor XIa, full length (human).
Experiment [13] concerns the target factor XIa catalytic domain K179A (human). The source holds these as a separate data set.
In a further experiment the target is wild type factor Xa (UniProt P00742).
Experiment [14] addresses recombinant wild type factor XIa catalytic domain (human) (UniProt P03951).
Experiment [15] addresses full-length factor XIa autolysis loop variant fXIa-144-149A (human). The source holds these as a separate data set.
Experiment [16] concerns the target factor Xa mutants with substitutions for basic residues in the autolysis loop.
The target in experiment [17] is factor XIa catalytic domain R171A (human) (UniProt P03951). The source holds these as a separate data set.

Read-outs that look alike come from different tables or passages of the source.

B1: C1-inhibitor (natural protein)
chain: NPNATSSSSQDPESLQDRGEGKVATTVISKMLFVEPILEVSSLPTTNSTTNSATKITANTTDEPTTQPTTEPTTQPTIQPTQPTTQLPTDSPTQPTTGSFCPGPVTLCSDLESHSTEAVLGDALVDFSLKLYHAFSAMKKVETNMAFSPFSIASLLTQVLLGAGENTKTNLESILSYPKDFTCVHQALKGFTTKGVTSVSQIFHSPDLAIRDTFVNASRTLYSSSPRVLSNNSDANLELINTWVAKNTNNKISRLLDSLPSDTRLVLLNAIYLSAKWKTTFDPKKTRMEPFHFKNSVIKVPMMNSKKYPVAHFIDQTLKAKVGQLQLSHNLSLVILVPQNLKHRLEDMEQALSPSVFKAIMEKLEMSKFQPTLLTLPRIKVTTSQDMLSIMEKLEFFDFSYDLNLCGLTEDPDLQVSAMQHQTVLELTETGVEAAAASAISVARTLLVFEVQQPFLFVLWDQQHKFPVFMGRVYDPRA
On to B1, for which the k2 (second-order inhibition rate constant) was determined as 7300 M⁻¹ s⁻¹ in [1]; 1200 M⁻¹ s⁻¹ in [2]; 1000 M⁻¹ s⁻¹ in experiment [3]; 1300 M⁻¹ s⁻¹ in [4]; 1100 M⁻¹ s⁻¹ in experiment [5]; 19200 M⁻¹ s⁻¹ in experiment [6]. The k2 (second-order inhibition rate constant) in experiment [7] is 600 M⁻¹ s⁻¹; in [8] it was 734000 M⁻¹ s⁻¹; in experiment [9], 730000 M⁻¹ s⁻¹; in experiment [10], 667000 M⁻¹ s⁻¹; in experiment [11] it was 430000 M⁻¹ s⁻¹; in experiment [12] it was 536000 M⁻¹ s⁻¹. Moreover, the k2 (second-order inhibition rate constant) in experiment [13] came to 778000 M⁻¹ s⁻¹; in experiment [14], 750000 M⁻¹ s⁻¹; in experiment [15] it was 20600 M⁻¹ s⁻¹; in experiment [17], 261000 M⁻¹ s⁻¹. The fold effect of heparin on inhibition in the experiment with wild type factor Xa stood at 35 fold; in experiment [16], 4 fold.
